# Columns and labels:
# [1] = test system: guinea pig red blood cells (RBCs); test: Parallel plate flow chamber, RBCs on carpet of FimH-expressing E. coli; format: cell-based; conditions: low shear, 0.01 to 0.14 dynes/cm^2
# Procedure: Bacteria-coated dishes were prepared as follows: 35 mm tissue culture dishes were incubated with 20 μg/ml RNAse B in 0.02 M bicarbonate buffer for 1 hr at 37° C. and washed three times in PBS with 0.1% BSA (PBS-BSA). The dishes were then incubated with 200 μl PBS-BSA containing 108 colony-forming units of E. coli for 1 hr at 37° C. and washed three times. […] The dishes were then placed under a Glycotech parallel plate flow chamber with a size B gasket (2.5 cm×0.25 cm×250 μm) and sealed with vacuum. A Harvard model #975 pulse-free syringe pump was used to pump fluid through the chamber. […]
# RBC movement was recorded using phase contrast microscopy with a 20× objective, a CCD camera, and Metamorph video imaging software by Universal Imaging. Videos were recorded at 1 frame every 2 s for a total of 3 min at each shear rate. […] The average velocity for each cell was calculated from these positions over the 3 min at each shear. […] We only analyzed cells that were attached and in the field of view at the start of the 3 min time frame. The off-rate of RBCs was calculated from the X, the percent of original RBCs remaining bound at time t, using the formula k=1/t·ln(1/X), and using t=3 min. […]
# [2] = test system: guinea pig red blood cells (RBCs); test: RBC rosette-formation assay (static agglutination); format: cell-based; conditions: static rosette-formation assay
# Procedure: (§1) Assays of bacterial adhesion to Man1-BSA and bovine RNAseB immobilized in 96-well plates were carried out as described previously (Sokurenko et al., 1995). Briefly, Man1-BSA and bovine RNAseB were dissolved at 20 μg/ml in 0.02 M bicarbonate buffer, and 100 μl aliquots were incubated in microtiter wells for 1 hr at 37° C. The wells were then washed three times with PBS and quenched with 0.1% BSA in PBS. 3H-thymidine-labeled bacteria were added in 0.1% BSA in PBS and incubated for 40 min at 37° C. without shaking to achieve saturation, and the wells were then washed with PBS. The individual wells were subjected to scintillation counting. The density of bacteria used in all assays was 5×10^7 colony forming units per 100 μl. RBC rosette-formation assay was performed by mixing equal amounts of serially diluted bacterial suspensions (starting from OD540 nm=1.0) and a 1% suspension of RBC in U-bottom microtiter plate wells. On-slide agglutination assays were performed by mixing the suspension of RBC and bacteria on a slide surface followed by rocking at ˜3 s^−1.
# Two commonly used RBC agglutination assays were performed that utilize different shear conditions. […] If no agglutination occurs, RBCs fall into a pellet in the bottom of the well (FIG. 15A), while agglutination results in a rosette of RBCs crosslinked by bacteria. […]
# [3] = test system: bovine RNAse B (trimannose); test: Bacterial adhesion to bovine RNAse B-coated microplate (trimannose), static; format: binding; conditions: mutations in FimH-j96 and FimH-f18
# Procedure: as §1
Molecule,Adhesion of RBCs to bacterial carpet under low shear [1],RBC agglutination under static conditions (in words) [2],Trimannose binding function of point mutants (in words) [3]
FimH-j96-Q32L:S124A: FimH-j96 with combined Q32L and S124A mutations in the loop regions near the linker chain (protein) FACKTANGTAIPIGGGSANVYVNLAPAVNVGLNLVVDLSTQIFCHNDYPETITDYVTLQRGSAYGGVLSSFSGTVKYNGSSYPFPTTSETPRVVYNSRTDKPWPVALYLTPVSSAGGVAIKAGALIAVLILRQTNNYNSDDFQFVWNIYANNDVVVPTGGCDVSARDVTVTLPDYPGSVPIPLTVYCAKSQNLGYYLSGTTADAGNSIFTNTASFSPAQGVGVQLTRNGTIIPANNTVSLGAVGTSAVSLGLTANYARTGGQVTAGNVQSIIGVTFVYQ,moved much more under low shear stress than those on FimH-j96,–,–
FimH-j96-V156P: FimH-j96 with the V156P point mutation in the linker chain (protein) FACKTANGTAIPIGGGSANVYVNLAPAVNVGQNLVVDLSTQIFCHNDYPETITDYVTLQRGSAYGGVLSSFSGTVKYNGSSYPFPTTSETPRVVYNSRTDKPWPVALYLTPVSSAGGVAIKAGSLIAVLILRQTNNYNSDDFQFVWNIYANNDVVPPTGGCDVSARDVTVTLPDYPGSVPIPLTVYCAKSQNLGYYLSGTTADAGNSIFTNTASFSPAQGVGVQLTRNGTIIPANNTVSLGAVGTSAVSLGLTANYARTGGQVTAGNVQSIIGVTFVYQ,–,significantly better than the corresponding wild-types,–
V156P: point mutation V156P engineered into the FimH-j96 and FimH-f18 variants (protein) FACKTANGTAIPIGGGSANVYVNLAPAVNVGQNLVVDLSTQIFCHNDYPETITDYVTLQRGSAYGGVLSSFSGTVKYNGSSYPFPTTSETPRVVYNSRTDKPWPVALYLTPVSSAGGVAIKAGSLIAVLILRQTNNYNSDDFQFVWNIYANNDVVPPTGGCDVSARDVTVTLPDYPGSVPIPLTVYCAKSQNLGYYLSGTTADAGNSIFTNTASFSPAQGVGVQLTRNGTIIPANNTVSLGAVGTSAVSLGLTANYARTGGQVTAGNVQSIIGVTFVYQ,–,–,entirely conserved
V154P: point mutation V154P engineered into the FimH-j96 and FimH-f18 variants (protein) FACKTANGTAIPIGGGSANVYVNLAPAVNVGQNLVVDLSTQIFCHNDYPETITDYVTLQRGSAYGGVLSSFSGTVKYNGSSYPFPTTSETPRVVYNSRTDKPWPVALYLTPVSSAGGVAIKAGSLIAVLILRQTNNYNSDDFQFVWNIYANNDPVVPTGGCDVSARDVTVTLPDYPGSVPIPLTVYCAKSQNLGYYLSGTTADAGNSIFTNTASFSPAQGVGVQLTRNGTIIPANNTVSLGAVGTSAVSLGLTANYARTGGQVTAGNVQSIIGVTFVYQ,–,–,entirely conserved
V155P: point mutation V155P engineered into the FimH-j96 and FimH-f18 variants (protein) FACKTANGTAIPIGGGSANVYVNLAPAVNVGQNLVVDLSTQIFCHNDYPETITDYVTLQRGSAYGGVLSSFSGTVKYNGSSYPFPTTSETPRVVYNSRTDKPWPVALYLTPVSSAGGVAIKAGSLIAVLILRQTNNYNSDDFQFVWNIYANNDVPVPTGGCDVSARDVTVTLPDYPGSVPIPLTVYCAKSQNLGYYLSGTTADAGNSIFTNTASFSPAQGVGVQLTRNGTIIPANNTVSLGAVGTSAVSLGLTANYARTGGQVTAGNVQSIIGVTFVYQ,–,–,entirely conserved
FimH-f18-V156P: FimH-f18 with the V156P point mutation in the linker chain (protein) FACKTANGTAIPIGGGSANVYVNLAPAVNVGQNLVVDLSTQIFCHNDYPETITDYVTLQRGSAYGGVLSSFSGTVKYNGSSYPFPTTSETPRVVYNSRTDKPWPVALYLTPVSSAGGVAIKAGSLIAVLILRQTNNYNSDDFQFVWNIYANNDVVPPTGGCDVSARDVTVTLPDYPGSVPIPLTVYCAKSQNLGYYLSGTTADAGNSIFTNTASFSPAQGVGVQLTRNGTIIPANNTVSLGAVGTSAVSLGLTANYARTGGQVTAGNVQSIIGVTFVYQ,dramatically stronger adhesion under low shear than did the FimH-f18 parent,significantly better than the corresponding wild-types,–
